Fewer inactive variants are shown than the library holds.
B1: TPR 5TU (parent)
chain: GGAUCUUCUCGAUCUAACAAAAAAGACAAAUCUGCCACAAAGCUUGAGAGCAUCUUCGGAUGCAGAGGCGGCAGCCUUCGGUGGCGCGAUAGCGCCAACGUUCUCAACUAUGACACGCAAAACGCGUGCUCCGUUGAAUGGAGUUUAUCAUG

Variants of: B1
Experiment: polymerase ribozyme fitness, log enrichment relative to wild type (log ratio); higher = more active; in vitro selection for triplet polymerase activity
In short: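 Libraries of mutants in each subunit of a heterodimeric triplet polymerase ribozyme were generated by PCR and transcribed. In triplicate, each went through one in vitro selection round: annealing with biotinylated primer, partner subunit and triplets; frozen incubation at −7 °C; gel excision of extended constructs; streptavidin-bead capture; RT-PCR. Fitness, taken from Illumina sequencing of input and output libraries, is the logarithm of a genotype's enrichment over wild-type enrichment, averaged across replicates with inverse-variance weights. The logarithm is base 2, and genotypes needed ≥10 input reads and ≥1 read per output to be kept.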

Variant | polymerase ribozyme fitness (log ratio)
A91G U144G | -2.02
A89U U127C G136C A137C | -4.13
G88A A110G | ≤ -4.2
A91C C125A U135C | ≤ -4.2
A91C A97G U109C A142C | ≤ -4.2
C87A C93G C114U G141C | ≤ -4.2
A91C A150G | ≤ -4.2
C87U G140U | -3.68
C87G G94C C132G | ≤ -4.2
A89U U148G | -3.92
A89C A142G | -1.52
A89C A150G | -0.921
G86U G141A U146C | -1.62
A89G C99G U102A C123G U135C U145G | ≤ -4.2
G88A C96A C125U G126U | ≤ -4.2
A89G C125U C132U | -1.73
C87G G112U | ≤ -4.2
G88U C96U G124C G136U | ≤ -4.2
G86U U104A G117C | -2.37
G88C G143C | -3.92
C87A A91G G152U | -4.13

Variant | polymerase ribozyme fitness (log ratio)
A89C | -0.82
A89U | -0.292
A89G | -0.999
A91G C108U | -3.97
G88A G124C | ≤ -4.2
G88C C95U | ≤ -4.2
G88C C108G | ≤ -4.2
U90A G94U C95U C116G C118G C123G | ≤ -4.2
A89G U111C | ≤ -4.2
A91U C103U U145A | ≤ -4.2
U90G G140C | ≤ -4.2
U90G G100A C116U | ≤ -4.2
G88C A115U | ≤ -4.2
A91G A113C U127C U146G | ≤ -4.2
C87G U111G | ≤ -4.2
C87U A91G C105G | -4.02
C87U G141U | 0.462
A91U G140U | ≤ -4.2
G88C C116U | -3.99
A89G G126U U148G | -4.06
C87A C123A A150U | -3.19

Variant | polymerase ribozyme fitness (log ratio)
A91C A120G G126A | ≤ -4.2
G88U C116U A137C C149G | ≤ -4.2
C87A C96U C99G U111C C125A | ≤ -4.2
C87U A110G G112U | ≤ -4.2
C87A G124U | ≤ -4.2
G86U U148A | -3.6
A89U C95G A122G | -1.39
A91G U145A | -3.07
A91G U145G | -3.96
C87G C116U | -3.77
C87U C125A C131U | 0.186
U90C C99G A138G | ≤ -4.2
C87U A120G | -1.85
A89C C95G | -3.24
A89C C95U | -1.49
A91U A113C | ≤ -4.2
G88A G117U | -3.84
U90C U104A | -4.11
G86U G100U | ≤ -4.2
C87U C132G | -3.72
C87U C132U | -1.11

Variant | polymerase ribozyme fitness (log ratio)
C87A G112C C116G | ≤ -4.2
C87U C118U A147U | -0.411
A89G G92U C125U U146C | -1.03
C87U C123U C149G | -2.65
A91G G140U | -4.19
A91G G94A | -3.47
U90G C96A C131G | ≤ -4.2
C87U U145G | -1.51
C87U U145A | 0.0527
C87G G140C | ≤ -4.2
C87U U146G | -0.864
C87U C96U C125U U144A | -2.68
A91C U139G | ≤ -4.2
A89G C131A | -2.5
A91U C118A A142C U144G | ≤ -4.2
G86U G92C | -2.75
G86U G92U | -1.95
G88A A110G A122U | -3.97
A91U A115U C118A C131G A138G | ≤ -4.2
A89G C125A | -1.77
C87G G92C C125U U127G U135G G141C | ≤ -4.2

Source: the RNAGym collection of RNA variant scans (doi:10.1073/pnas.2313332121)
